T1: human Fibrin (human fibrinogen clotted on the plate with thrombin and CaCl2) (human, UniProt P02671 36-629; P02675 45-491; P02679 27-437)
T1 construct: Made in the ELISA wells from the human fibrinogen by thrombin and CaCl2, 1 hour at 37 C, then dried
T1 sequence (looked up) 1: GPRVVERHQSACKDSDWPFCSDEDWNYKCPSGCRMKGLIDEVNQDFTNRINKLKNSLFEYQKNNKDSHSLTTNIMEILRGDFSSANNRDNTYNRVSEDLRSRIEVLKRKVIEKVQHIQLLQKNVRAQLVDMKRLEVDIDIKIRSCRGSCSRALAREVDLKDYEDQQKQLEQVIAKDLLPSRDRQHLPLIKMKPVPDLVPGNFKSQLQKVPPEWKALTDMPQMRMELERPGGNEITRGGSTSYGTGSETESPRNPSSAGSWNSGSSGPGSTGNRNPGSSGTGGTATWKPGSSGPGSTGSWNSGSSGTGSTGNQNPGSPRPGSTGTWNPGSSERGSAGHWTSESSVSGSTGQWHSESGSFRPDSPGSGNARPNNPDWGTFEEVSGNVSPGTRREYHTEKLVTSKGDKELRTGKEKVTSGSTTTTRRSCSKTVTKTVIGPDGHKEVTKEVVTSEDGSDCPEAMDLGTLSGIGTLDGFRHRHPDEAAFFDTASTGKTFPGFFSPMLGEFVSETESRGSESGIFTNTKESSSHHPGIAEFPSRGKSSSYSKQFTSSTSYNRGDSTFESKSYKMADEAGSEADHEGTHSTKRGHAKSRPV
T1 sequence (looked up) 2: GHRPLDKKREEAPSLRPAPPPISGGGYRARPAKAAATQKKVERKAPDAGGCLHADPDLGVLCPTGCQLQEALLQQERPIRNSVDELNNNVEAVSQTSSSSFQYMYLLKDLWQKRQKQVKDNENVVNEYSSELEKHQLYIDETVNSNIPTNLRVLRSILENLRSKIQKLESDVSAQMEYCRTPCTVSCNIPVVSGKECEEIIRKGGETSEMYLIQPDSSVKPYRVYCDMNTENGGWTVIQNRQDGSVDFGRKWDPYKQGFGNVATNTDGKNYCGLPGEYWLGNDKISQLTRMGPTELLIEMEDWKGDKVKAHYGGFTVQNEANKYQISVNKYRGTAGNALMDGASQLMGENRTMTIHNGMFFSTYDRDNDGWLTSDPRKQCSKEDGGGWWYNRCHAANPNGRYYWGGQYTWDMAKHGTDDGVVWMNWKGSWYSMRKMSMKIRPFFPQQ
T1 sequence (looked up) 3: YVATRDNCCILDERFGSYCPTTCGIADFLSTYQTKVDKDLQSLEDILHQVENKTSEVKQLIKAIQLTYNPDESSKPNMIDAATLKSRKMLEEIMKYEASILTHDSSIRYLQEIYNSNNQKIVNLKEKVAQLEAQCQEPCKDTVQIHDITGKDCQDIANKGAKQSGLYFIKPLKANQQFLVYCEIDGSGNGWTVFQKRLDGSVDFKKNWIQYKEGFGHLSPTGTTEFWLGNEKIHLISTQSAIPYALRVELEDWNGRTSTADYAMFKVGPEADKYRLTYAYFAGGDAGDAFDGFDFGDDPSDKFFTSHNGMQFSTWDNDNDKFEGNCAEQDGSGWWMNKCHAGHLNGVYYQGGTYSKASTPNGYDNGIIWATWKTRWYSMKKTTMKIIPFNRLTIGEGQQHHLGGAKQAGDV


Target: T1, human Fibrin (human fibrinogen clotted …)
Assay: ELISA on human fibrin formed on the plate
Procedure: The humanized antibodies affinity for fibrinogen, fibrin and P2 peptide were assessed by Enzyme-linked immunosorbent assays (ELISA)s (FIGS. 7-16). ELISAs for fibrinogen binding were performed using plasminogen-depleted human Fibrinogen (EMD/Calbiochem). […] IgG1-depleted Fibrinogen (FGN) in 20 mM HEPES/Saline buffer was added to each well of half of a 96-well Nunc Maxisorp™ ELISA plate. The ELISAs for fibrin binding were prepared by adding 50 mL of 20 mM HEPES/Saline buffer containing 14 mM CaCl₂, and 2 units thrombin to each well of the second half of the Nunc Maxisorp™ ELISA plate. 50 mL of 20 mg fibrinogen in 20 mM HEPES/Saline buffer were then added to a total volume of 100 mL. Plates were placed in a 37° C. incubator for 1 hour to allow fibrinogen to clot into fibrin and subsequently placed overnight into a plate dryer at 37° C. overnight. The ELISAs for P2 peptide were prepared by addition of […] of 30 mM P2 peptide in 20 mM HEPES/Saline buffer to each well of a 96-well Nunc Maxisorp™ ELISA plate. Plates were transferred to the plate dryer and dried overnight at 37° C. All ELISAs were preformed using Nunc MaxiSorp 96-well ELISA plates. Blocking was performed using 100 mL 5% BSA in DPBS are incubated at RT for 1 hour. Plates were washed 5× in DPBS containing 0.05% Tween-20 (EL406 was used for the addition of wash buffer only). 50 mL of primary antibodies was diluted in 0.5% BSA in DPBS, and the primary antibodies were added to the plates and incubated for 2 hours at 37° C. Plates were washed 5× in DPBS/Tween. 100 mL secondary antibodies were diluted in 0.5% BSA in DPBS. The secondary antibodies were then added to the plates and incubated for 1 hour at RT. Afterwards, plates were washed 5× in DPBS/Tween. 100 mL of TMB/E substrate solution was added, and the reaction was stopped after 5 minutes with 1N HCl.

| Binder | EC50 [nM] |
| --- | --- |
| humanized VH5/Vκ2 antibody (antibody, IgG1, V domains shown, IgG1; also called VH5/VK2; VH5Vk2) VH: QVQLVQSGAEVKKPGSSVKVSCKASGYTFTSYWIHWVRQAPGQGLEWIGLIDPSDSYTNYNQKFRGRVTITRDTSTSTAYMELSSLRSEDTAVYYCASSDPTGCWGQGTTVTVSS VL: DIVMTQAAFSNPVTPGTPASISCRSSKSLLHSSGITYLSWYLQKPGQSPQLLIYQMSNLASGVPDRFSSSGSGTDFTLKISRVEAEDVGVYYCAQNLELPLTFGQGTKLEIK | ~525 |
| humanized VH4/Vκ2 antibody (antibody, IgG1, V domains shown, IgG1; also called VH4/VK2; VH4Vk2) VH: QVQLVQSGAEVKKPGSSVKVSCKASGYTFTSYWIHWVRQAPGQGLEWIGLIDPSDSYTNYNQKFRGRVTITVDTSTSTAYMELSSLRSEDTAVYYCASSDPTGCWGQGTTVTVSS VL: DIVMTQAAFSNPVTPGTPASISCRSSKSLLHSSGITYLSWYLQKPGQSPQLLIYQMSNLASGVPDRFSSSGSGTDFTLKISRVEAEDVGVYYCAQNLELPLTFGQGTKLEIK | ~762 |

These reach a lower EC50. Values come first.

| EC50 [nM] | Binder |
| --- | --- |
| ~488 | humanized VH6/Vκ2 antibody (antibody, IgG1, V domains shown, Expressed as IgG1; also called VH6/VK2; VH6Vk2) VH: QVQLVQSGAEVKKPGSSVKVSCKASGYTFTSYWIHWVRQAPGQGLEWIGLIDPSDSYTNYNQKFQGRVTITRDTSTSTAYMELSSLRSEDTAVYYCASSDPTGCWGQGTTVTVSS VL: DIVMTQAAFSNPVTPGTPASISCRSSKSLLHSSGITYLSWYLQKPGQSPQLLIYQMSNLASGVPDRFSSSGSGTDFTLKISRVEAEDVGVYYCAQNLELPLTFGQGTKLEIK |
| ~219 | humanized VH4/Vκ1 antibody (antibody, IgG1, V domains shown, Expressed as IgG1; also called VH4/VK1; VH4Vk1) VH: QVQLVQSGAEVKKPGSSVKVSCKASGYTFTSYWIHWVRQAPGQGLEWIGLIDPSDSYTNYNQKFRGRVTITVDTSTSTAYMELSSLRSEDTAVYYCASSDPTGCWGQGTTVTVSS VL: DIVMTQAAFSNPITPGTPASISCRSSKSLLHSSGITYLSWYLQKPGQSPQLLIYQMSNLASGVPDRFSSSGSGTDFTLRISRVEAEDVGVYYCAQNLELPLTFGQGTKLEIK |
